In a protein production outcome set (Wang et al. 2014):

Test: label from the status in PepcDB records

Sequence | protein production
MGTIGKKAAKGASVKFSESSTQAVIKATYLQVFGRDVYEGQRLKVQEIKLENGEISVRDFVRALAKSDLFRKLYWTPFYVCKAIEYIHRRLLGRPTYGRQENNKYFDIASKKGLYAVVDAILDSLEYTETFGEDTVPYERYLTPAGLEHHHHHH | not failed
MGTIILTWNIQWGRGADGRVDLSRMLAEARAMGSFDVLCLQEVTSGFGHLPGQPGEDQWQELAGALGQAFTLIDGIALERHEGAQIRRFGNAIATRLPVLHVARHALPCPADAGPTMPRMAIEAIVQAPFGPLRVVSTHLEYYSETQRIAQIDALRALHVEGCMRAAHPPTLGPEPTDGPFRPLAQTRATVICGDFNCKPDSKPKRLATVPFSHEAAALYDAWETAHGPTPQPPTFGVHDRTGWTEPAYACDFMLVSEPLKTRVTRVEVNSTTQASDHQPTLLELRDAE | failed
MGTIKIVTDSSITIEPELIKALDITVVPLSVMIDSKLYSDNDLKEEGHFLSLMKASKSLPKTSQPPVGLFAETYENLVKKGVTDIVAIHLSPALSGTIEASRQGAEIAEAPVTVLDSGFTDQAMKFQVVEAAKMAKAGASLNEILAAVQAIKSKTELYIGVSTLENLVKGGRIGRVTGVLSSLLNVKVVMALKNDELKTLVKGRGNKTFTKWLDSYLAKNSHRPIAEIAISYAGEASLALTLKERIAAYYNHSISVLETGSIIQTHTGEGAFAVMVRYE | not failed
MGTPAERWERARMFFDAKDYAAAARVLDGLVAQVPEQTGPRLLLARSYYHSAQLRRAEAELRVVVERDPVEHYARLMLGRTLERQGRQEEADAQLRIASALAGLEHHHHHH | failed
MGTSDEEIDRLLGKLTPRARALLLNGATTWRTRAEPAVELRELVMSDGPAGVRGEAWDERSTSLLLPSASALAATWDEALVEDLGGLLAAEARRKGVDVLLAPTLNLHRSPLGGRHFECLSEDPELTGRIGAALVRGIQAHGVAATAKHYVANDSETDRLTVDVRVGERALREVYLAPFEAAVAAGVRLVMAGYNAVNGTTMTANALLTDPLKSEWGFDGVVVSDWGAVRGTTGTARAGLDLAMPGPDGPWGEALARAVAEGAVPEPAVDDKARRLLRLAAWLGALGGRDVSRSPVPGRPADSPGAEGADGGAGAGPSSGAEGLPGRGPAHGAKPSGPRPRRAGDGRALARRAVAAGAVLLANKDVLPLDPEHLGTVAVIGAHAARTRTQGGGSAGVFPRGEVSVLDGIRAELRGRARVVHVPGPRPDGPAPPLDPDTCTDPRSGLPGVLLRMLDADGRELYAERRRGGRLLEPRLVPGAHTVEIRARLCPRTGGSWSLGVAGFGRMSLTTDGRTLLEGDFPPSTDDPAVMHVNPPAQYATADLTAGRDTLLVARRELAPGTGRATVLVAAPPAPDVTASLAEAVRAAGAADAAVVVVGTTEHGESEGYDRTDLALGATQDALVRAVAAANPRTVAVVNSGGPVELPWREQAGAVLLAWFPGQEGGGGLADVLFGHAEPGGRLPTTWPAVLADAPVTRTRPDGGRLDYDEGLHLGHRGWLRHHRTPAYWFGHGLGYTTWRYEELTVPPVTRAGDGLTVRVRVRNTGARAGREVVQVYLARPASALDRPARWLAGYTAVRARPGETVTATVRVPARALRHWSVAEHAWRTEAGPCRVLAGRSAGDVPLAAEVEVVPTASA | failed
MGVATMVTDKYQKCIDACNRCSQACYECFKACLNEPDVNARRTCISILFECAQMCQMSSALMSMDAQFAIDHCKLCSVICDKCAQECSMFQDPHCQKCANECRTCSNECRMMSGMLEHHHHHH | not failed
MGVLAEVYEMLNTCNRCGFCHTACKTYKVDGAETMVSRGRVQLIKAVADGVIEADADYEDSINSCLLCGECAVACPSGVSAKELVMAARRDLKLRHGLEHHHHHH | not failed
MGVLAEVYEMLNTCNRCGFCHTACKTYKVDGAETMVSRGRVQLIKAVADGVIEADADYEDSINSCLLCGECAVACPSGVSAKELVMAARRDLKLRHGVKPFVKSYALKTLANPNKLERAFKLFGGLGKNVLNKVDGMDYFRGVDIKGMNVAKVPFLNQVPERILVAQPKHKVAFYVGCFLNFSLDDTAHSVVKVLTKNDCEVIIPKEQVCCGLPQYAYGDFETAKVNARKTIDTFMAKDVEAIITACGSCAAMLKEDYLKLFADDAAYLPRVKSFCAKVKEFSEYMAEIGVDESKFHNSTPVKVTYHDPCHMVRGIKVTAQPRQMLKSLPRVEYIEMFEANRCCGASGLVQAFYHEMSTKVTREKAKNIQDSGAEVVATSCPACIMRLQGGVSMAGQKQKVMHVADLMAKAYEN | failed
MGVRLAVRCFVVDGVLIDTGAKSMENEFTSFFQQQDIDQVVITHFHEDHTGCAAFLQRSMGLPIYMNEPMIEYCRQKADYPLYRKIFWGKRDPFAAKPIGATFSSRNATWDVIPTPGHAIDHVVFLNRETGQLFSGDLYCQEKTKVILREEDIPTIIASLQHVLTYDFGDVFCAHAGYLPLEHHHHHH | failed
MGVVLIDGSTVRSFVDDEEQFKKSVDERFAALDLNKDGVLSRSELRKAFESMRLLESHFGVDVVTPQDELTNLYDSIFEKFDTDQSGSVDLEEFRSEMKKIVLAIADGLGSCPITMVLDDDDDNFLKKAADLEASKLEKASS | failed
MGVVRPAEQQSRIAARRVALLEKVDYRLAETPAEREAIYRLRYRAYLKEGAIDANSSGIVTDRYDDLPNSWIFGVFYEGELSSSLRITVASPDHHDCPSMDVFPDFLQPWLAEGKVIVDPTRFVADPTSANRLPELPYLTLRLAYVSCEYFNADIGLASVRTEHQAFYRRVMMRS | failed
MGWQTLKQQSVPARKRLLYLHIPFCATHCTFCGFYQNKLRDDSTATYTRYLLQELAMEADSPLHQSAPIHAVYFGGGTPTALAADELSQIIRAIRTSLPLAPDCEITVEGRAMDFDDERIDACLDAGANRFSIGIQTFDTRIRQRMARTSDKQQSIRFLERLCGRDRAAVVCDLMFGLPGQTPEIWREDLAIVSDLPLDGVDLYALNLLPTTPLAKAAENQRVALPDVVARRDFYRTGAAFLADSGWHQLSNSHWARTTRERNLYNLLIKQGADCLAMGSGAGGNINGQAYMMERSLERYYQQIDQGQKPIMMMTPASSTGPWQHQLQAGIEVGRIKLPQLTQHARELQPLLSQWHQAGLTCDDSTCLRLTNDGRFWANNLMQALQQIIPQLNAEEHAHLEHHHHHH | failed
MGYFYVLLAAFLWGLIGPLSRMAFQEGLTPLTVAFYRALLSWIFFLAHAARTGGLRVAPRDLPVFPLFGLLGVALFYGAYQLAVLYGGAALASVLLYTAPAWVALLSWAFLREPPTARSWGAVALTLLGVGLLGLGGGSEVRFGVRAFLFGLASGFFYALHYLLGKLYLGRYATPTFFAYALPVAALALAPWAEFGPLTPRALGALLALSLFSTYGAYLAFYAGLRRLPATVASVVATLEPVVAVVLAYLLFGEVLSPLGYFGALLVILAVLLAVRR | failed
MGYNTIPAGKDLPNDIYVAIEIPANASPIKYEIDKDMDALLVDRFMATPMFYPANYGYINNTLADDGDALDVLVITPYPVAPGSVIRARPVGVLKMSDEAGGDEKLLAVPHEKLTQLYNDIHDIDDVPQLLKDQIVHFFEHYKDLEKGKWVKVEGWENADAARAAIVKSAAAYKG | not failed
MGYRNLQDCVFDLEARGDLVRIDVETDPNIEIGAIQRRVYQAGGPALLFTRVKGCRFPMLGNLFGTMARTKFIFRDTLDDIRRLVELKINPTAVLKNPKEYAGAPLAALRLLPRQVSRGPILGHRTTIAELPQLKSWPMDGGPFVTLPQVYSESPKRPGFRFSNLGMYRVQLAGNDYRLNEEVGVHYQIHRGIGVHHAEAIERGEPLRVNIFVGGAPSMTVAAVMPLPEGLPELSFAGLLAGHRLAMVCRRGELPMPAEADFVITGTIDPNKTLPEGPFGDHLGYYSLAHPFPVLRVENVWHRDDAIWPFTSVGRPPQEDTTFGAFIHELTGALIPEVLPGVKGVHAVDAAGVHPLLLAVGSERYVPYEAERVPRELLTIASAILGNGQLSLAKYLFITPNEDNPPDIHHIDEFLTFILERADWRRDLHFHTRTTIDTLDYSGSGLNEGSKVIVAAAGPKRRDLPTEVPGGLRLPDGFTTPHVCLPGILAVTGPAFPGYGDNGAPDMERFCASFAPDDPINRFPLVVIVDDSAFTSRTLNNFLWVTFTRSNPAADIHGIGSSVRCKHWGCGGALVIDARVKPHHAPPLLDVPEIERRVDALGAPGGPLRGII | failed
MGYSRSREIRRWEMRKMKAAGLSVEEAYSDEEGGLVPDLVYKESSSEFLGNKVFDPVLRNKIEIEKPGTEISAVAKRGSVFLSVHPRSYVAPSASGEVDREVSQRLPIESFRDDLMEFVGKHRVIVLVGETGSGKSTQVPKYLYQEGYGDKGIIGCTQPRRAAAISLASTLKREMGCAVGYSIRFDSTTTQDTKIRYMTEGILLQELLADKMLRRYSVVILDEAHERTTNLDISMGLLKLALKERDDLRIIIMSATIEAQKLCNYFGCPAFNIEGRSYPVETRYLSVNVDDYVEWTVKKILYIHENCGEGDILVFVTGRDDVEGVVGIVNHCIRNKCFGEGSEGGRGLKVLPFYSQLPEEMQNRVFQAEKDVRKCIVSTNVAETSLTIPNIGYVIDTGLQKISVYSYDTGESLVTVPISRANADQRTGRAGRTRPGVCYRMYTADTYENDMLPSPVPEIQRTNIHNVVLLLLKHGVHDILGFDFVDRPSEELIQGALLGLHRLGAVCSRGLLTKVGKEMSELRLDPPLARMVLGAAGYGAVNEIASIASMLSVHEVFHRDFDKSSPLCHQGCDFLTLLNIFNAFIRQKNRSEWCNKMKVSEHALKRATETKRAVLMSLREMGVPISSTRSLDKIQRCIISSVHYNVARRRGKGYVCLSNFRACMVHPSSVLADSYSQYIIFYKHLSTRAEYMYCCSNISPQVILEEAGCYYRDRNGVFNIQKHPVIEDGLDREHNPFGSACSLTGARMPGKIALDENLYDRFEKWNESEESDEEPPKKIRRTRI | failed
MHAKFLDTLDWGILIAYFLILIAIGIWASSKRKKGSSLFLAEHSLRWHHIGFSMWGTNVGPSMLIASASAGFTTGIVSGNYAWYAFVFICLLAFVFAPRYLGSRVSTLPEFMGKRFGQSTRNILAWYTIVTILISWLALTLFAGGVLIRQVFDIPMWQSALILLIISAFFTMLGGLKAVAYTNVYQMILLILVSAALAIVGIYKVGGISALTDAVPADFWNLFRPNDDTAFPWLPIILGYPVMGVWFWCTDQSMVQPVLAAKSLKEGQLGTNFTGWLKILDVPLYILPGIICLALFPQLENPDEAYMTMVTHLFPVGMVGLVLAVLTAALVSTIGSALNALSTVFTMDIYVKKIRPQAKQKEIIRVGQVVTVAGALISVIITIAIDSIHGLNLFNVFQSVLGFIAPPMAAVFLFGVFWKRTTTLAANAALTVGTVFSIGVGVLYLWVFPADQYSAWPHFMLLSFYLFVIIGIGMVVVGLLDKTPQTAILNMEKIEEKPARIVLILWGLLIVTMIGLYIFFNGH | failed
MHALIVVAHHHPRSLTHALAARIAEGVVRAGHSAETADLAAEGFEPRFGLADHAVHRGQASPPADVLAEQARIDRADTLVLVYPIYWWSMPALLKGWIDRVFSNGWAFDYSIGGDLRKKLQRLRVVLVGVGGADAGTFERHGYAGAMRTQIDHGIFDYCGARVVRSELLLESESADPIRHLDQALHIGSQLFAARGAQGAAQAQPLEA | failed
MHATQAILQGLRPVWTRPARLILTTPMSTTPPVPSPLQRGTLKQRRNTLPKRSNRHRDGRVYYANLAATMIARDNLRAAQIILAESHRRHPAFCDTRLMEAGVHLSLGRSDAAEAALRICHEAEPDEQRAVSGLVEIALERADATTARQLLEDQPQTPTFDLARARIALFNGDPSAARTFLDAHPAEGSTTVLAAFADAMEGDLDTAIARLNAQANRTDAALALAALQAAAGVVPDAAPSSPTASFFTALNPAANDDRRAALNAAEGFEQGFTAAGLDAVPQGSPDLALGVVFRLWGFHGAALERLVAASNDDPENPLAAYFVAVAHLKLGQNAQAEAALAKARTAAPSFFAANIAAAELRIRAGAPQEALAMLKAAVAVREDPGALMRIGLIEESFGDDDTARAAYERFVAVQPGSYIGYNQLAWHLARRGIELDRAQELAERANTLQPENASVLDTLGWIAFLRGDGAGAIERLRAAHEISQGDIPIISFHLAQAELKYGETPRGIALLQDLTAAGPAAYPFSQEATDILAKALQ | failed
